# From patent US20230365640A1 (ACADEMIA SINICA, published 2023)
# B1: CLEC5A.Fc protein (Fc fusion)
# chain: PQIFNKSNDGFTTTRSYGTVSQIFGSSSPSPNGFITTRSYGTVCPKDWEFYQARCFFLSTSESSWNESRDFCKGKGSTLAIVNTPEKLKFLQDITDAEKYFIGLIYHREEKRWRWINNSVFNGNVTNQNQNFNCATIGLTKTFDAASCDISYRRICEKNAK
# B2: Dectin-1.Fc (CLEC7A) protein (Fc fusion)
# chain: TMAIWRSNSGSNTLENGYFLSRNKENHSQPTQSSLEDSVTPTKAVKTTGVLSSPCPPNWIIYEKSCYLFSMSLNSWDGSKRQCWQLGSNLLKIDSSNELGFIVKQVSSQPDNSFWIGLSRPQTEVPWLWEDGSTFSSNLFQIRTTATQENPSPNCVWIHVSVIYDQLCSVPSYSICEKKFSM
# B3: Dectin-2.Fc (CLEC6A) protein (Fc fusion)
# chain: TYHFTYGETGKRLSELHSYHSSLTCFSEGTKVPAWGCCPASWKSFGSSCYFISSEEKVWSKSEQNCVEMGAHLVVFNTEAEQNFIVQQLNESFSYFLGLSDPQGNNNWQWIDKTPYEKNVRFWHLGEPNHSAEQCASIVFWKPTGWGWNDVICETRRNSICEMNKIYL
# B4: Mincle.Fc (CLEC4F) protein (Fc fusion)
# chain: RCVVTFRIFQTCDEKKFQLPENFTELSCYNYGSGSVKNCCPLNWEYFQSSCYFFSTDTISWALSLKNCSAMGAHLVVINSQEEQEFLSYKKPKMREFFIGLSDQVVEGQWQWVDGTPLTKSLSFWDVGEPNNIATLEDCATMRDSSNPRQNWNDVTCFLNYFRICEMVGINPLNKGKSL
# Target: recombinant SARS-CoV-2 RBD (His-tagged SARS-CoV-2 RBD fusion protein) (SARS-CoV-2, UniProt P0DTC2 328-585)
# Experiment: ELISA
row,Binder,binding result
1,B1,no binding (tested: 50 µg/ml)
2,B2,no binding (tested: 50 µg/ml)
3,B3,no binding (tested: 50 µg/ml)
4,B4,no binding (tested: 50 µg/ml)
